Source: patent US7384773 (Pfizer, dated 2008)
Non-standard residues stand in square brackets, D forms with d. No end group written: not given here. Sta = CC(C)C[C@H](N)[C@@H](O)CC(=O)O

Target: T1, CHO cell expressed recombinant human beta secretase proteolytically cleaved with HIV protease (human, UniProt P56817 61-453, glycosylated (CHO cell expressed))
T1 construct: N-terminus at V40 after cleavage of the F39-V40 bond; The transmembrane and cytoplasmic domains are deleted; also called HIV protease treated beta secretase; processed enzyme
T1 sequence (P56817 other isoform, or with tags, fused parts or gaps): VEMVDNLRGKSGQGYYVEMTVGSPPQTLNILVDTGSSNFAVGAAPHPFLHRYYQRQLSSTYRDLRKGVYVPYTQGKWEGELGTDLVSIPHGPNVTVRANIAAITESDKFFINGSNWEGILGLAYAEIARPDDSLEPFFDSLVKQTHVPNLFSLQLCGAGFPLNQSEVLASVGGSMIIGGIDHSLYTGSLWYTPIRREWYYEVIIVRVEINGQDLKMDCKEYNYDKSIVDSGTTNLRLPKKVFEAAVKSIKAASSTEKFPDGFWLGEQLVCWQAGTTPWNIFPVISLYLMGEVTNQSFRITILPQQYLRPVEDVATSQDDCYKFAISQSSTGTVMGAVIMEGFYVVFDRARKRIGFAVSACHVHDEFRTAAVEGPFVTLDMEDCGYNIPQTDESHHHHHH
Test: affinity chromatography, peptide immobilised on resin

B1: synthetic peptide Ser-Glu-Val-Asn-Sta-Val-Ala-Glu-Phe-Arg-Gly-Gly-Cys (Sta=statine) (peptide)
peptide: SEVN[Sta]VAEFRGGC
modifications: also: coupled to Sulfolink resin (via Cys)
Q: Does B1 bind?
A: binds
